The values below are quoted from earlier work in paper PMC8215388.

The target in this data set is DnaK (Escherichia coli) (UniProt P0A6Y8). The data set is described as follows: analytical ultracentrifugation and cross-linking.

Chain of DnaK (P0A6Y8 2-638): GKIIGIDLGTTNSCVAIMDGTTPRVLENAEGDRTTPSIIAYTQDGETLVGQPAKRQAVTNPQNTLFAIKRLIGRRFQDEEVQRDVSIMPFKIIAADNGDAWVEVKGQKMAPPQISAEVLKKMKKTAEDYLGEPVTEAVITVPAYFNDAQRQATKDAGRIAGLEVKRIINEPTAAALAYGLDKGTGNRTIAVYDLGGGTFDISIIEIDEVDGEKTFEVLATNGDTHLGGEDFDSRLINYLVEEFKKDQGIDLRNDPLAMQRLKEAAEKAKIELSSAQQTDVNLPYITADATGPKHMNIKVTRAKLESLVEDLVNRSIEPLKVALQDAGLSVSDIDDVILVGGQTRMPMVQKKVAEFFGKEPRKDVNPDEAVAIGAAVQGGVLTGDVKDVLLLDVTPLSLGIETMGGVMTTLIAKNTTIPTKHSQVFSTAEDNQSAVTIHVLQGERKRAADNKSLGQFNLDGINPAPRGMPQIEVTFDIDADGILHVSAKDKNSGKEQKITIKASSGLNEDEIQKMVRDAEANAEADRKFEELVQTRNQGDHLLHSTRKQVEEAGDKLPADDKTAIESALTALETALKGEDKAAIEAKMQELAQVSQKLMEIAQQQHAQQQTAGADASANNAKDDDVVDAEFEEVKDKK

A word on the Kd: it is the equilibrium constant for the complex coming apart. With DnaK (from UniProt P0A6Y8), the Kd is 200 µM.
